Where “and” joins values, the source holds several entries; their conditions need not be identical. Equal values may be shown once.
Tests used:
[1] = target: Human PD-L1 mouse Fc fusion protein (human, UniProt Q9NZQ7 19-238); test: ELISA
[2] = target: PD-L1 on H1975 human lung adenocarcinoma cells (human (on H1975 cells), UniProt Q9NZQ7 19-290); test: ELISA
PD-L1 on H1975 human lung adenocarcinoma cells, sequence (Q9NZQ7 19-290): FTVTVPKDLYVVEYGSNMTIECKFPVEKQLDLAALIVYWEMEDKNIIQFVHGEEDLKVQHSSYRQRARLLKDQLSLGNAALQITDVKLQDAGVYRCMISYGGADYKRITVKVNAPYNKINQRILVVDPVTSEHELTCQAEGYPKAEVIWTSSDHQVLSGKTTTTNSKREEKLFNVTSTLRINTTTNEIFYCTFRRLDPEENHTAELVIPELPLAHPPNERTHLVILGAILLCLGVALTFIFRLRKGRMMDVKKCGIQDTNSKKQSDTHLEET

Human PD-L1 mouse Fc fusion protein, sequence (Q9NZQ7 19-238): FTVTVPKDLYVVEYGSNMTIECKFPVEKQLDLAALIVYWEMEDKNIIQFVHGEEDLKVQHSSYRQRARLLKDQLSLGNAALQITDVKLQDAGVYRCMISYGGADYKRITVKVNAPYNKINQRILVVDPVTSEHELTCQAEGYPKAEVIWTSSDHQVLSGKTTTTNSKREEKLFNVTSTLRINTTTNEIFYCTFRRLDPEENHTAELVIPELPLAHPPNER

- EC50 [1]: 0.02 nM
- EC50 [2]: ~0.2 nM and 0.1 nM and 0.13 nM
B1: mutPD-1Ig (Fc fusion, human, UniProt Q15116 21-161, looked up)
chain: PGWFLDSPDRPWNPPTFSPALLVVTEGDNATFTCSFSNTSESFVLNWYRMSPSNQTDKLAAFPEDRSQPGQDCRFRVTQLPNGRDFHMSVVRARRNDSGTYLCSAISLAPYIQIKESLRAELRVTERRAEVPTAHPSPSPR

Source: article PMC10621011 (ACS Omega, 2023)
